Experimental findings from paper PMC11843895, “Single-Molecule Nanopore Sequencing of the CpG Island from the Promoter of O6-Methylguanine-DNA Methyltransferase Provides Insights into the Mechanism of De Novo Methylation of G/C-Rich Regions” are described below.

The term Kd denotes the free concentration of one partner at which half of the binding sites on the other are occupied at equilibrium, for simple one-to-one binding. Broadly, the IC50 is the concentration needed to halve the response being measured.

In data set [1] the target is T1, Dnmt3a-CD (UniProt O88508 608-908). Put plainly: BLI; 100 uM AdoHcy; BLI: 20 mM HEPES-NaOH pH 7.5, 100 mM KCl, 1 mM EDTA, 0.2 mM DTT, 100 uM AdoHcy, 5% glycerol, 0.02% Tween-20, 0.5 mg/mL BSA, 25 C; inhibition: buffer A (20 mM HEPES-NaOH pH 7.5, 100 mM KCl, 1 mM EDTA, 1 mM DTT) with 25 uM AdoMet, 37 C; FP: buffer A. The note with it: protein: recombinant, tags: N-terminal 6xHis, chain copies: 2.

The target of data set [2] is T1, Dnmt3a-CD. Kind of data set: competition (inhibition of methylation); 300 nM MGMT-ds1-f substrate, 2 uM enzyme, 25 uM AdoMet; BLI: 20 mM HEPES-NaOH pH 7.5, 100 mM KCl, 1 mM EDTA, 0.2 mM DTT, 100 uM AdoHcy, 5% glycerol, 0.02% Tween-20, 0.5 mg/mL BSA, 25 C; inhibition: buffer A (20 mM HEPES-NaOH pH 7.5, 100 mM KCl, 1 mM EDTA, 1 mM DTT) with 25 uM AdoMet, 37 C; FP: buffer A. The note with it: protein: recombinant, tags: N-terminal 6xHis, chain copies: 2.

T1 sequence (O88508 608-908): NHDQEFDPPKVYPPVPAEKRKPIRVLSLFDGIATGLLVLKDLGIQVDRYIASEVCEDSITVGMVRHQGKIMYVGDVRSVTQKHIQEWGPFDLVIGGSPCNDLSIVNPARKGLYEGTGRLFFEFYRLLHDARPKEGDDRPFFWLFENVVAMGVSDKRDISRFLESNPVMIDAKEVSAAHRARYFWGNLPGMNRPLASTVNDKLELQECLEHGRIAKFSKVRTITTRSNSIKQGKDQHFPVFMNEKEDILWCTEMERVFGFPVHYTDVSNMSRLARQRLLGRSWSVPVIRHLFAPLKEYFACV

Turning to GGGCCGGGGCGCGCGGGGGCGGAG (structured_DNA) [MGMT-G4-bio], in data set [1] (label: 5' biotin, G4, mixed hybrid (CD of unlabeled MGMT-G4)), the Kd turned out to be 14 ± 0.4 nM.

B1: MGMT-ds2-bio (dsDNA)
DNA 1: CTCCGCCCCCGCGCGCCCCGGCCC
DNA 2: GGGCCGGGGCGCGCGGGGGCGGAG
As for B1, in data set [1] (label: 5' biotin on strand 1 (C-rich), blunt), the Kd was determined as 15 ± 0.5 nM.

With CTCCGCCCCCGCGCGCCCCGGCCC (ssDNA) [MGMT-C-bio], the Kd in data set [1] (label: 5' biotin) is 211 ± 21 nM.

For the molecule GTGCCGGAGCGCGCGGAGGCGGAG (ssDNA) [MGMT-G4-mut], the IC50 in data set [2] (no G4 by CD) is 590 ± 90 nM.

B2: MGMT-ds1-bio (dsDNA)
DNA 1: GGTCCTGCAGGCGCCCTCACTT
DNA 2: AAGTGAGGGCGCCTGCAGGACC
For B2, the Kd in data set [1] (label: 5' biotin on strand 1, blunt) is 65 ± 2 nM.

Turning to CTGAATACTACTTCCTACCCCTTACCTGAT (ssDNA) [non-specific control (no CpG)], the IC50 in data set [2] was 2400 ± 700 nM.

As for GGGCCGGGGCGCGCGGGGGCGGAG (structured_DNA) [MGMT-G4], in data set [2] (G4, mixed hybrid (CD)), the IC50 is 610 ± 30 nM.
